Earlier results on 1 substance are cited in PMC7855609.

One series concerns the target Asp38 (UniProt position 104, FKVVFDTGSSN). Kind of series: kinetics. Particulars: Enzyme turning over the wild-type peptide substrate PTDP (His at P2).
Another series has as its target Asp226 (UniProt position 292, CLALVDTGASY). Kind of series: kinetics. Particulars: Enzyme turning over the wild-type peptide substrate PTDP (His at P2).

Consider “Renin (recombinant human renal renin) (Homo sapiens)”, for which the pKa (commonly the negative logarithm of the acid dissociation constant) in the series with Asp38 is recorded as 5.3; in the series with Asp226 it was 6.3.
